Assay results from patent US20200199244A1 (published 2020).
Changes are numbered by the printed parent chain. Several values for one entry are separate records, joined by “and”; a condition that tells them apart may be missing. Identical values can stand only once.

B1: BMS3h-37-205 (other)
VH: EVQLLESGGGLVQPGGSLRLSCAASGFTFEWYEMQWVRRAPGKGLEWVSAISGDGYRTYYADSVKGRFTISRDNSKNTLYLQMNSLRAEDTAVYYCAKELEYFDYWGRGTLVTVSS
notes: domain antibody (dAb): single human VH domain
B2: BMS3h-37-207 (other)
VH: B1 VH with E101A, Y102F
notes: as for B1
B3: BMS3h-37-213 (other)
VH: B1 VH with E101L, Y102F, W106R
notes: as for B1
B4: BMS3h-37-212 (other)
VH: B1 VH with Q13R, Y102F
notes: as for B1
B5: BMS3h-37-206 (other)
VH: B1 VH with E99G
notes: as for B1
B6: BMS3h-38-238 (other)
VH: EVQLLASGGGLVQPGGSLRLSCAASGFTFEEEEMIWVRQAPGKGLEWVSAISRSGYSTYYADSVKGRFTISRDNSKNTLYLQMNSLRAEDTAVYYCGKEPFRYDYWGQGTLVTVSS
notes: as for B1
B7: BMS3h-38-228 (other)
VH: B6 VH with S54N, Y56F
notes: as for B1
B8: BMS3h-38-201 (other)
VH: B6 VH with R53G, Y56G, R102Y
notes: as for B1
B9: BMS3h-38-209 (other)
VH: B6 VH with S54L, Y56W
notes: as for B1
B10: BMS3h-38-204 (other)
VH: B6 VH with E30P, E31Q, R53G, Y56G
notes: as for B1
B11: BMS3h-38-224 (other)
VH: B6 VH with R53G, Y56G, R102P
notes: as for B1
B12: BMS3h-38-205 (other)
VH: B6 VH with E30F, E31A, E32A, R53G, Y56G
notes: as for B1
B13: BMS3h-38-225 (other)
VH: B6 VH with R53G, Y56G, S57G
notes: as for B1
B14: BMS3h-38-237 (other)
VH: B6 VH with S54G, Y56W
notes: as for B1
B15: BMS3h-38-235 (other)
VH: B6 VH with S54N
notes: as for B1
B16: BMS3h-38-226 (other)
VH: B6 VH with R53G, Y56G, F101L, R102Y
notes: as for B1
B17: BMS3h-38-202 (other)
VH: B6 VH with R53G, Y56G, R102Y, Y103F
notes: as for B1
B18: BMS3h-38-218 (other)
VH: B6 VH with S54H, Y56W
notes: as for B1
B19: BMS3h-38-203 (other)
VH: B6 VH with E32K, R53G, Y56G, R102F
notes: as for B1
B20: BMS3h-38-223 (other)
VH: B6 VH with R53G, Y56G, R102M
notes: as for B1
B21: BMS3h-38-217 (other)
VH: B6 VH with S54R
notes: as for B1
B22: BMS3h-38-215 (other)
VH: B6 VH with R53G, S54L, Y56W
notes: as for B1
B23: BMS3h-38-231 (other)
VH: B6 VH with T28P, S54Q, Y56W
notes: as for B1
B24: BMS3h-193-2506 (other)
VL: DIQMTQSPSSLSASVGDRVTITCRASQQIGRRLNWYQQKPGKAPRLLIYLATRLQSGVPSRFSGSGSGTDFTLTISSLQPEDFATYYCHQYESPPLTFGQGTKVEIKR
notes: domain antibody (dAb): single human V kappa domain
B25: BMS3h-193-2512 (other)
VL: B24 VL with Q27E, Q28V
notes: as for B24
B26: BMS3h-193-2501 (other)
VL: B24 VL with Q28T, G30E, Y91F, S93H
notes: as for B24
B27: BMS3h-193-2503 (other)
VL: B24 VL with Q27S, Q28T
notes: as for B24
B28: BMS3h-193-2510 (other)
VL: B24 VL with Q28S
notes: as for B24
B29: BMS3h-193-2504 (other)
VL: B24 VL with Q27S
notes: as for B24
B30: BMS3h-193-2507 (other)
VL: B24 VL with Q28P, G30A
notes: as for B24
B31: BMS3h-193-2514 (other)
VL: B24 VL with Q27T, Q28S, G30A
notes: as for B24
B32: BMS3h-193-2511 (other)
VL: B24 VL with Q28N, R31T
notes: as for B24
B33: BMS3h-193-2513 (other)
VL: B24 VL with Q27E, Q28A
notes: as for B24
B34: BMS3h-193-2502 (other)
VL: B24 VL with Q27F, Q28P, G30D
notes: as for B24
B35: BMS3h-193-2505 (other)
VL: B24 VL with Q27E, Q28R
notes: as for B24
B36: BMS3h-193-2515 (other)
VL: B24 VL with Q27L, Q28N
notes: as for B24
B37: BMS3h-56-246 (other)
VH: EVQLLESGGGLVQPGGSLRLSCAASGFTFRDYEMWWVRQAPGKGLERVSAINPWGTLTYYADSVKGRFTISRDNSKNTLYLQMNSLRAEDTAVYYCAKLPFTFEDWGQGTLVTVSS
notes: as for B1
B38: BMS3h-56-244 (other)
VH: B37 VH with T56G, E104D
notes: as for B1
B39: BMS3h-56-229 (other)
VH: B37 VH with W54Y, T56S, E104D
notes: as for B1
B40: BMS3h-56-239 (other)
VH: B37 VH with T56S, E104D
notes: as for B1
B41: BMS3h-56-205 (other)
VH: B37 VH with W54Q, L57R, T102Y, E104S, D105E
notes: as for B1
B42: BMS3h-56-243 (other)
VH: B37 VH with T56G, L57F
notes: as for B1
B43: BMS3h-56-225 (other)
VH: B37 VH with T56G, L57Y, E104D
notes: as for B1
B44: BMS3h-56-220 (other)
VH: B37 VH with W54Y, T56G, E104D
notes: as for B1
B45: BMS3h-56-207 (other)
VH: B37 VH with W54Q, L57R, T102P, E104S, D105E
notes: as for B1
B46: BMS3h-56-224 (other)
VH: B37 VH with T56Q
notes: as for B1
B47: BMS3h-56-253 (other)
VH: B37 VH with W54A, T56G, L57Y, Y95H
notes: as for B1
B48: BMS3h-56-223 (other)
VH: B37 VH with K43R, W54P, T56M, E104D
notes: as for B1
B49: BMS3h-56-232 (other)
VH: B37 VH with T56S, L57H, E104D
notes: as for B1
B50: BMS3h-56-248 (other)
VH: B37 VH with W54Y, T56N, E104D
notes: as for B1
B51: BMS3h-56-204 (other)
VH: B37 VH with W54Q, L57R, F101T, T102Y, E104K
notes: as for B1
B52: BMS3h-38-215 (other)
VH: B6 VH with R53G, S54L, Y56W
B53: BMS3h-38-231 (other)
VH: B6 VH with T28P, S54Q, Y56W
B54: BMS3h-38-217 (other)
VH: B6 VH with S54R
B55: BMS3h-38-228 (other)
VH: B6 VH with S54N, Y56F
B56: BMS3h-38-219 (other)
VH: B6 VH with A50S, Y56G

biological target: T1, human CD40 (BMS, CY24FEB06-01) (human, UniProt P25942 21-193); experiment: ELISA RBA, competition with IZ-CD40L for soluble human CD40;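 further: Neutravidin-coated 384-well plates, dAb–human CD40 complex incubated 2 h at room temperature, read-out as absorbance at 450 nm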
T1 construct: Soluble human CD40 reagent of the ELISA RBA
T1 sequence (P25942 21-193 limits assumed): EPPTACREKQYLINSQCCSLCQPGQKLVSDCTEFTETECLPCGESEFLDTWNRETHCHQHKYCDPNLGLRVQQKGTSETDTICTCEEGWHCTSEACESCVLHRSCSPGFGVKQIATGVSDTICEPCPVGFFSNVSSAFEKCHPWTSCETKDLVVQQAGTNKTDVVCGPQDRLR
Description: Clear walled High Bind, 384-well plates (Corning, UK) were coated with 25 μl of 1 μg/ml Neutravidin in 0.2 M carbonate-bicarbonate buffer, pH 9.4 overnight at 4° C. The following day, assay plates were washed with 0.1% (v/v) Tween PBS buffer, blocked with 1% (w/v) BSA in PBS for 1 hour at room temperature and washed again. […] Following washing of the assay plate, the dAb:human CD40 complex was incubated in the assay plate at room temperature for 2 hours with gentle agitation. […] Absorbance signal was measured using a SpectraMax® M5e plate reader (Molecular Devices) at 450 nm following neutralization with 1M HCl solution.

EC50	Binder
3.1 nM and 4.4 nM	B1
2.5 nM and 6.6 nM	B2
16 nM	B3
24 nM	B4
3.2 nM and 8.9 nM	B5
5.1 nM	B6
4 nM	B7
3.4 nM	B8
10.2 nM	B9
4.8 nM	B10
6.3 nM	B11
4.5 nM and 11.1 nM	B12
8.8 nM	B13
2 nM	B14
1.5 nM	B15
18.1 nM	B16
4.8 nM	B17
3 nM	B18
5.5 nM	B19
5.7 nM	B20
1.8 nM and 2.2 nM	B21
2.3 nM and 3.6 nM	B22
4.4 nM	B23
180 nM	B24
600 nM	B25
114 nM	B26

EC50	Binder
3000 nM	B27
170 nM	B28
140 nM	B29
160 nM	B30
525 nM	B31
270 nM	B32
130 nM	B33
170 nM	B34
500 nM	B35
100 nM	B36
11.1 nM	B37
6 nM	B38
4.1 nM	B39
2.7 nM	B40
9 nM	B41
9.9 nM	B42
2.9 nM	B43
4.2 nM	B44
7.3 nM	B45
2.1 nM and 4.2 nM	B46
1.3 nM	B47
5 nM	B48
2.8 nM and 3.7 nM	B49
0.7 nM	B50
4.5 nM	B51

biological target: human CD40 (human, UniProt P25942 21-277); experiment: cell-based or functional assay
Sequence (P25942 21-277 limits assumed): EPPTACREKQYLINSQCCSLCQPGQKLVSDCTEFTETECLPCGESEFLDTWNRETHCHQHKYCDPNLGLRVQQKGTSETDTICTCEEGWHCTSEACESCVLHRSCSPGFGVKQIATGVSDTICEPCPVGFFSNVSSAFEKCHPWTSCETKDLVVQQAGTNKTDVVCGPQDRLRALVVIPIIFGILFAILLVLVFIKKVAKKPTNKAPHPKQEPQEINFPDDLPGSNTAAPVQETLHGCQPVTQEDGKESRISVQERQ

CHO-hCD40L-driven DC Activation IL-12 EC50	CHO-hCD40L-driven Human B Cell Proliferation EC50	T-B cell MLR EC50	hIZCD40L-driven Human B Cell Proliferation EC50	Binder
6 nM	65 nM	163 nM	1 nM	B52
			0.66 nM	B53
1.7 nM	34 nM	74 nM	0.8 nM	B54
			0.7 nM	B55
9 nM	93 nM	164 nM	2 nM	B56
